Data published in publication PMC4344348, “Quantitative Analysis of Ligand-EGFR Interactions: A Platform for Screening Targeting Molecules” (PLoS ONE, 2015).

Molecular target: T1, Epidermal growth factor receptor (UniProt P00533 25-645)
T1 construct: Epidermal growth factor receptor (EGFR), bought from Sigma-Aldrich; Coupled by its amines to the dextran of a CM5 chip (about 12,000 RU) for both SPR and AFM; also called EGFR; source: bought: Sigma-Aldrich
Experiment: SPR; Biacore X; EGFR amine-coupled to a CM5 chip, ligands flowed over; room temperature; running buffer PBS; flow 10 ul/min; regeneration 50 mM NaOH; channel without EGFR as control; EGF 0.25-4 uM, GE11 10-160 uM; KD from BIAEvaluation software
Settings: both partners purified

Kd: 459 µM
B1: Peptide GE11 (peptide)
peptide: YHWYGYTPQNVI
notes: In solution for SPR; for AFM coupled to succinimide-modified silicon nitride tips; source: synthetic peptide, custom synthesized by Millipore
